How the values were obtained:
[1] = target: T1, prostate specific membrane antigen (PSMA) on LNCaP cells (human, UniProt Q04609 1-750); assay: cell-based or functional assay
[2] = target: T1, prostate specific membrane antigen …; assay: cell-based or functional assay; remark: listed apart in the source

T1 sequence (Q04609 whole entry): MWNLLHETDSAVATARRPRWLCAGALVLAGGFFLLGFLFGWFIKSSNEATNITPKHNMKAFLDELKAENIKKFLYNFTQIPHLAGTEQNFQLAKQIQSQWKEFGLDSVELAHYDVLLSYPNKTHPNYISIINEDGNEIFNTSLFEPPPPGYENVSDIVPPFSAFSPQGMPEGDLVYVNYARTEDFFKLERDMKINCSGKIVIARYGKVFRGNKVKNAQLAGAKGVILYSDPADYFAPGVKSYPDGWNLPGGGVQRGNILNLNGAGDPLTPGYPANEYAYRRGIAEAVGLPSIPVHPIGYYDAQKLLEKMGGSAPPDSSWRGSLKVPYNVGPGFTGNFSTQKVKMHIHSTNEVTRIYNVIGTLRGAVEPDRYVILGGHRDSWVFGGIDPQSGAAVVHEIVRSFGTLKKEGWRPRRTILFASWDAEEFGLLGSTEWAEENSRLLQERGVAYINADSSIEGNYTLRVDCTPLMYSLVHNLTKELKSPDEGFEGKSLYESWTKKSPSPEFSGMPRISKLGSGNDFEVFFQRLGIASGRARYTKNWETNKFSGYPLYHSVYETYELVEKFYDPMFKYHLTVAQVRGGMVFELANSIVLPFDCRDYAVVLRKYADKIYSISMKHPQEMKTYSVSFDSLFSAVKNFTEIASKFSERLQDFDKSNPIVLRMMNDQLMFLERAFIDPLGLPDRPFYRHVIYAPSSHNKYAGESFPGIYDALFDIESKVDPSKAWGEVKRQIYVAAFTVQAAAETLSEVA

B1: anti-PSMA human monoclonal antibody 7F12 expressed in eggs of chimeric chickens (lacks fucose residues) (antibody, IgG1, V domains shown)
VH: AVQLVQSGAEVKKPGESLKISCKGSGYSFTSFWIGWARQMPGKGLEWMGIIYPGDSDTRYSPSFQGQVTISADKSISTAYLQWSSLKASDTAMYYCATANSSFWNFDLWGRGTLVTVSS
VL: EIVLTQSPATLSLSPGERATLSCRASQSVSSYLAWYQQKPGQAPRLLIYDASNRATGIPARFSGSGSGTDFTLTISSLEPEDFAVYYCQQRSNWLMYTFGQGTKLEIK
modifications: N-linked Fc glycans without fucosyl residues (high-mannose, complex and hybrid type)
ADCC % lysis at 1 µg/ml antibody, no anti-CD16 antibody [1]: ~38%
ADCC EC50, 51Cr release, LNCaP-C42b targets, IL-2 stimulated effector cells [1]: 0.018 µg/mL
ADCC EC50 fold difference against CHO-expressed 7F12 [1]: ~6 fold lower
EC50 for antibody internalization (Hum-Zap saporin conjugate, LNCaP cell viability) [1]: 0.49 nM

B2: anti-PSMA human monoclonal antibody 7F12 expressed in CHO cells (fucosylated) (antibody, human IgG1, V domains shown)
VH: B1 VH
VL: B1 VL
modifications: N-linked Fc glycans containing fucosyl residues
ADCC % lysis at 1 µg/ml antibody, no anti-CD16 antibody [1]: ~15%
ADCC EC50, 51Cr release, LNCaP-C42b targets, IL-2 stimulated effector cells [1]: 0.11 µg/mL
EC50 for antibody internalization (Hum-Zap saporin conjugate, LNCaP cell viability) [1]: 0.49 nM

B3: anti-PSMA fully human monoclonal antibody 2A10 expressed in CHO DG44 cells (fucosylated) (antibody, V domains shown)
VH: EVQLVQSGAEVKKPGESLKISCKGSGYSFTSNWIGWVRQMPGKGLEWMGIIYPGDSDTRYSPSFQGQVTISADKSISTAYLQWSSLKASDTAMYYCARQTGFLWSSDLWGRGTLVTVSS
VL: AIQLTQSPSSLSASVGDRVTITCRASQDISSALAWYQQKPGKAPKLLIYDASSLESGVPSRFSGYGSGTDFTLTINSLQPEDFATYYCQQFNSYPLTFGGGTKVEIK
modifications: N-linked glycans containing fucose
ADCC % lysis at 1 µg/ml antibody, no anti-CD16 antibody [1]: ~12%
ADCC EC50 (µg/ml) Fucosylated, Expt. #1 (IL-2 stimulated effector cells, LNCaP-C42b targets) [2]: 0.08 µg/mL
ADCC EC50 (µg/ml) Fucosylated, Expt. #2 (IL-2 stimulated effector cells, LNCaP-C42b targets) [2]: 0.026 µg/mL
ADCC EC50 (µg/ml) Fucosylated, Expt. #3 (fresh human peripheral blood effector cells, LNCaP-C42b targets) [2]: 0.036 µg/mL

B4: anti-PSMA fully human monoclonal antibody 2A10 expressed in FUT8-/- Ms704 cells (defucosylated) (antibody, IgG1, V domains shown)
VH: B3 VH
VL: B3 VL
modifications: N-linked glycans without fucose residues
ADCC % lysis at 1 µg/ml antibody, no anti-CD16 antibody [1]: ~37%
ADCC EC50 (µg/ml) Defucosylated, Expt. #1 (IL-2 stimulated effector cells, LNCaP-C42b targets) [2]: 0.007 µg/mL
ADCC EC50 (µg/ml) Defucosylated, Expt. #2 (IL-2 stimulated effector cells, LNCaP-C42b targets) [2]: 0.009 µg/mL
ADCC EC50 (µg/ml) Defucosylated, Expt. #3 (fresh human peripheral blood effector cells, LNCaP-C42b targets) [2]: 0.002 µg/mL
ADCC EC50 Ratio (fucosylated to defucosylated 2A10), Expt. #1 [2]: 11.4 ratio
ADCC EC50 Ratio (fucosylated to defucosylated 2A10), Expt. #2 [2]: 2.9 ratio
ADCC EC50 Ratio (fucosylated to defucosylated 2A10), Expt. #3 [2]: 18 ratio
